Patent US20190194268A1 (DONALD DANFORTH PLANT SCIENCE CENTER, published 2019)

Assays:
F. graminearum PH-1 = assay type: cell-based, Fusarium graminearum; conditions: γ-core motif variants
F. graminearum = assay type: cell-based, Fusarium graminearum; conditions: γ-core motif variants

B1: MtDef5FL1_V1 (other)
chain: KLCQAASTTWSGPCLNTGNCKRQCINVEHATFGACAAQGFGFACFCYKKCAPKKVEPKLCEAASKTWSGPCLISGNCKRQCINVEHATSGACAAQGIGFACFCKKKC
notes: Alanine variant expressed in P. pastoris; also called MtDef5FL1 γ-core motif variant V1
F. graminearum PH-1
  reduction in antifungal activity against F. graminearum relative to wild-type MtDef5FL1: 4 fold
F. graminearum
  ability to permeabilize the plasma membrane (SG uptake) compared with wild-type MtDef5FL1: lost its ability to permeabilize the fungal plasma membrane almost completely
